Experimental findings from PMC5430633, “Phosphorylation of the mitochondrial autophagy receptor Nix enhances its interaction with LC3 proteins” (Scientific Reports, 2017) are described below.

This assay concerns the target LC3B (UniProt Q9GZQ8). As to the kind of experiment: NMR titration of labelled LC3B. Conditions: reference: unphosphorylated peptide P0; sites S34,S35.

“Nix (from UniProt O60238) pS34 pS35 peptide P2”: the KD result was “stronger; reference ~100”.
